Data set [1] deals with T1, generic peptide substrate RARTLSFAEPG
T1 sequence: RARTLSFAEPG

In data set [2] the test system is T2, standard peptide substrate MHRQETVDCLK
T2 sequence: MHRQETVDCLK

By Km is commonly meant the substrate concentration at which the rate is half of its maximum. Take “alpha-isoform of calmodulin-dependent protein kinase II (CaMKII)”: the Km in data set [1] amounted to 300 µM; in data set [2], 60 µM.

Values taken from patent US7727950.
